What was measured:
[1] = target: HRD1 (HMG-CoA reductase degradation 1), endogenous human, Q86TM6-3; assay: co-immunoprecipitation (FLAG-agarose IP, Western blot quantitation); conditions: SEL1L-/- HEK293T cells; n = 3; mean ± SEM; parent: est. 1.0; read off a plot
[2] = target: OS9 (Osteosarcoma amplified 9), endogenous human (UniProt Q13438); assay: as above; conditions: SEL1L-/- HEK293T cells; n = 3; mean ± SEM; parent: est. 1.0; read off a plot
[3] = target: HRD1 (HMG-CoA reductase degradation 1), endogenous human, Q86TM6-3; assay: as above; conditions: SEL1L-/- HEK293T cells; n = 3; mean ± SEM; parent: est. 1.0; read off a plot; remark: listed apart in the source
[4] = target: OS9 (Osteosarcoma amplified 9), endogenous human (UniProt Q13438); assay: as above; conditions: SEL1L-/- HEK293T cells; n = 3; mean ± SEM; parent: est. 1.0; read off a plot; remark: listed apart in the source
[5] = target: mouse SEL1L S658P/F668Y-FLAG (mouse); assay: co-IP; anti-FLAG agarose IP from lysates of SEL1L-/- HEK293T cells transfected with SEL1L-FLAG variants, blots for endogenous partners; 150 mM NaCl, 0.2% NP-40, 0.1% Triton X-100, 25 mM Tris-HCl pH 7.5, overnight at 4 C
[6] = target: SEL1L^S658P, endogenous mouse (homozygous KI liver) (mouse (endogenous in liver)); assay: co-IP; IP of endogenous SEL1L or HRD1 (home-made antibody, protein A agarose) from livers of 5-week-old WT, HET and KI mice; 150 mM NaCl, 1% NP-40, 25 mM Tris-HCl pH 7.5

Sequence of HRD1 (HMG-CoA reductase degradation 1), endogenous human, Q86TM6-3 (Q86TM6 other isoform, or with tags, fused parts or gaps): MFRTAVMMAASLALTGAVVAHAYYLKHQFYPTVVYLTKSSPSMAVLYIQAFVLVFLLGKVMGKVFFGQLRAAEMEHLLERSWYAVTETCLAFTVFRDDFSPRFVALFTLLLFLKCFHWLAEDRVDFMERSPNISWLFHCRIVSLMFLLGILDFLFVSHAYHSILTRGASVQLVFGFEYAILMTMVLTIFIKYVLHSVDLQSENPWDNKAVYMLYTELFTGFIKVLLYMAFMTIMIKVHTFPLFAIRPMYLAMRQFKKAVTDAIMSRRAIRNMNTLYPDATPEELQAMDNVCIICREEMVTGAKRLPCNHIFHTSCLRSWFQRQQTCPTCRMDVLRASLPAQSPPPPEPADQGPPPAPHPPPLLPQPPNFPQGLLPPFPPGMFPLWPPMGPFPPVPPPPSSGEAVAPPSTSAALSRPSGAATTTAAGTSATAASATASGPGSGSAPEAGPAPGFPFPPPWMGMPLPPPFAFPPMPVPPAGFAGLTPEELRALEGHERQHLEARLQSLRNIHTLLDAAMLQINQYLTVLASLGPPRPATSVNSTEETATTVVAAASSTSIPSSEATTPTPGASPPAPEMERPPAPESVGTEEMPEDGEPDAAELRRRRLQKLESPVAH
Sequence of UniProt Q13438 (Q13438 26-667): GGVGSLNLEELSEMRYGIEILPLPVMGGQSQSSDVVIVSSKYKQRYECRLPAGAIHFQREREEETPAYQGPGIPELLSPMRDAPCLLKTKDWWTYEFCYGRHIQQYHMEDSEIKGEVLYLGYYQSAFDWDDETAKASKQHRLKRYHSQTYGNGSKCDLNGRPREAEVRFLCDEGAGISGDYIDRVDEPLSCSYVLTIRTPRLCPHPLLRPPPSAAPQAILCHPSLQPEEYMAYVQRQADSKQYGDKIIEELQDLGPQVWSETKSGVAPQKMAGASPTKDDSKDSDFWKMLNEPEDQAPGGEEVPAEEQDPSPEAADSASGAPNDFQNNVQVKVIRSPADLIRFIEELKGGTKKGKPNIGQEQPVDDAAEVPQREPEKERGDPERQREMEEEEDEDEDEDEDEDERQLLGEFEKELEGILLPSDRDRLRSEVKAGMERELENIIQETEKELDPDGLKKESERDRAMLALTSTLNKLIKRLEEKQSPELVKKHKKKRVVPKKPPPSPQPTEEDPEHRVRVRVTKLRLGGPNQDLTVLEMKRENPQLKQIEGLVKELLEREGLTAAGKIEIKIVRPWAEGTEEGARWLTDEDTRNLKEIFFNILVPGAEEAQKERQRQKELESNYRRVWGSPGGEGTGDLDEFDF

Row | response [1] [a.u.] | response [2] [a.u.] | response [4] [a.u.] | Substance | further results
1 | 0.07 | 1 |  | mouse SEL1L (WT)-FLAG (from UniProt Q9Z2G6-1) F668A | 
2 |  |  | 1 | mouse SEL1L (WT)-FLAG (from UniProt Q9Z2G6-1) F668Y | response [3]: 0.9 a.u.

More lines, now with the values behind:

Row | Substance | response [1] [a.u.] | response [2] [a.u.] | response [4] [a.u.] | further results
3 | mouse SEL1L (WT)-FLAG (from UniProt Q9Z2G6-1) S658P | 0.15 | 1 | 0.95 | response [3]: 0.17 a.u.
4 | HRD1 (HMG-CoA reductase degradation 1), endogenous human (from UniProt Q86TM6-3 1-616) (enzyme) |  |  |  | fold increase against SEL1L S658P [5]: 2 fold
5 | mouse SEL1L (WT)-FLAG (from UniProt Q9Z2G6-1) S658P; F668Y |  |  | 0.95 | 
6 | mouse SEL1L (WT)-FLAG (from UniProt Q9Z2G6-1) S658P; F668A | 0.11 | 0.97 |  | 
7 | HRD1, endogenous mouse (liver) (from UniProt Q9DBY1 1-612) (enzyme) |  |  |  | fold reduction against WT and HET livers [6]: 5 fold
